Assay results: article PMC11417369, “DNA sequence and chromatin differentiate sequence-specific transcription factor binding in the human malaria parasite Plasmodium falciparum”

T1: SIP2 D1 (Plasmodium falciparum, UniProt C6KSN9 177-235)
T1 sequence: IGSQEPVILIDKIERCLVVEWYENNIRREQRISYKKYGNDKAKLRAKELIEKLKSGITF

T2: HDP1 homeodomain-like (Plasmodium falciparum, UniProt Q8IKH4 2990-3078)
T2 sequence: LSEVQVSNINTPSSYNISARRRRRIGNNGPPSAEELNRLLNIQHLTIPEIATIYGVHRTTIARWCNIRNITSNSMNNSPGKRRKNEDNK

B1: GTGCAC_negctrl_site108 (dsDNA)
DNA 1: TTGTTTAACTTGTTAAATATAATGTATCTGTGGATA
DNA 2: TATCCACAGATACATTATATTTAACAAGTTAAACAA
B2: GTGCAC_negctrl_site669 (dsDNA)
DNA 1: AAAAAAAAGTATGATTCTAAATTTATGTATATATAA
DNA 2: TTATATATACATAAATTTAGAATCATACTTTTTTTT
B3: GTGCAC_site10418 (dsDNA)
DNA 1: CTTTTCTATTTTTTCGTGCACTATAAATATTTTAAT
DNA 2: ATTAAAATATTTATAGTGCACGAAAAAATAGAAAAG
B4: GTGCAC_site10368 (dsDNA)
DNA 1: ACATGTGAATTTTAGGTGCACTTGTAATTTAACATT
DNA 2: AATGTTAAATTACAAGTGCACCTAAAATTCACATGT
B5: GTGCAC_negctrl_site278 (dsDNA)
DNA 1: TTTTTTACATACAGAAATATATAATATAAAATAAAT
DNA 2: ATTTATTTTATATTATATATTTCTGTATGTAAAAAA
B6: GTGCAC_negctrl_site491 (dsDNA)
DNA 1: TTTTTTATTTTTTACATATTTAGCTCATATTTATAT
DNA 2: ATATAAATATGAGCTAAATATGTAAAAAATAAAAAA
B7: GTGCAC_site9422 (dsDNA)
DNA 1: CACTCTTAAAATAAGGTGCACTATATAACGTGATTA
DNA 2: TAATCACGTTATATAGTGCACCTTATTTTAAGAGTG
B8: GTGCAC_negctrl_site647 (dsDNA)
DNA 1: ATCAGTGATTAGGTTATATATAAAAATGAACTAATA
DNA 2: TATTAGTTCATTTTTATATATAACCTAATCACTGAT
B9: GTGCAC_negctrl_site45 (dsDNA)
DNA 1: TTATGTTGCGAGTTCTTAAGATATAAAAAATTCTTC
DNA 2: GAAGAATTTTTTATATCTTAAGAACTCGCAACATAA
B10: GTGCAC_negctrl_site81 (dsDNA)
DNA 1: TTTATTAGATAACGATAAACGAAAAAAAAAAAATAA
DNA 2: TTATTTTTTTTTTTTCGTTTATCGTTATCTAATAAA
B11: GTGCAC_negctrl_site214 (dsDNA)
DNA 1: ACCCAAGAGAAAAGAGAAAGAAATATGTGTATATTG
DNA 2: CAATATACACATATTTCTTTCTCTTTTCTCTTGGGT
B12: GTGCAC_site10700 (dsDNA)
DNA 1: ATTATACAAATTGAGGTGCATGAAACAAAATATGAA
DNA 2: TTCATATTTTGTTTCATGCACCTCAATTTGTATAAT
B13: GTGCAC_negctrl_site613 (dsDNA)
DNA 1: TACTCAAAAATTAATTAGCATAATATATATAAAAAT
DNA 2: ATTTTTATATATATTATGCTAATTAATTTTTGAGTA
B14: GTGCAC_negctrl_site670 (dsDNA)
DNA 1: TAAGACTATTAAAAAATTGAGTACATGAACTGTTCA
DNA 2: TGAACAGTTCATGTACTCAATTTTTTAATAGTCTTA
B15: GTGCAC_site10073 (dsDNA)
DNA 1: AAATACTGTACAAAGGTGCATAAAAAGTGGGGCATA
DNA 2: TATGCCCCACTTTTTATGCACCTTTGTACAGTATTT
B16: GTGCAC_site9431 (dsDNA)
DNA 1: TCTTCTTTAAAAGAGGTGCACTATATAATGTGATTA
DNA 2: TAATCACATTATATAGTGCACCTCTTTTAAAGAAGA
B17: GTGCAC_negctrl_site701 (dsDNA)
DNA 1: ATTAATATGAAACGATTATAAGAAAGAAAAGAAATG
DNA 2: CATTTCTTTTCTTTCTTATAATCGTTTCATATTAAT
B18: GTGCAC_site10051 (dsDNA)
DNA 1: AATAAATTAAAACAGGTGCACTATATTACACACGCT
DNA 2: AGCGTGTGTAATATAGTGCACCTGTTTTAATTTATT
B19: GTGCAC_negctrl_site129 (dsDNA)
DNA 1: AATTTAATCCGTAATAAGAAAAGAAAAAAAAAAAGA
DNA 2: TCTTTTTTTTTTTCTTTTCTTATTACGGATTAAATT
B20: GTGCAC_site9957 (dsDNA)
DNA 1: TTTTAATGTACCAGTGTGCACCTTGCGTACATATTA
DNA 2: TAATATGTACGCAAGGTGCACACTGGTACATTAAAA
B21: GTGCAC_site10153 (dsDNA)
DNA 1: AAAATGTAATATTGGGTGCACAATAAGTTTGATGTC
DNA 2: GACATCAAACTTATTGTGCACCCAATATTACATTTT
B22: GTGCAC_negctrl_site458 (dsDNA)
DNA 1: ATGTAATTATAAGATTAATATACATAATTATATGTA
DNA 2: TACATATAATTATGTATATTAATCTTATAATTACAT
B23: GTGCAC_site9624 (dsDNA)
DNA 1: GACAAATAATAAAAGGTGCATTATACTTAACAAAAA
DNA 2: TTTTTGTTAAGTATAATGCACCTTTTATTATTTGTC
B24: GTGCAC_site9947 (dsDNA)
DNA 1: TATTTGAAAACATAGGTGCACATTATTTTATAATCT
DNA 2: AGATTATAAAATAATGTGCACCTATGTTTTCAAATA
B25: GTGCAC_site10578 (dsDNA)
DNA 1: CATATTGTCATTCTGGTGCACTTTTTTTTTTTTTTT
DNA 2: AAAAAAAAAAAAAAAGTGCACCAGAATGACAATATG
B26: GTGCAC_negctrl_site283 (dsDNA)
DNA 1: ATAATTCCAAGAATTTCATATATCTGAATTTTAGGT
DNA 2: ACCTAAAATTCAGATATATGAAATTCTTGGAATTAT
B27: GTGCAC_negctrl_site728 (dsDNA)
DNA 1: TTTTGTAAAATTAATTTATTATACATATATATTTCT
DNA 2: AGAAATATATATGTATAATAAATTAATTTTACAAAA
B28: GTGCAC_negctrl_site660 (dsDNA)
DNA 1: AATTAATTTATTTTATAAATAGTTAGATCGTCATAA
DNA 2: TTATGACGATCTAACTATTTATAAAATAAATTAATT
B29: GTGCAC_negctrl_site490 (dsDNA)
DNA 1: TGTATAAAAAGAAAAAATCGTATGTGTTATCAAAAA
DNA 2: TTTTTGATAACACATACGATTTTTTCTTTTTATACA
B30: GTGCAC_negctrl_site170 (dsDNA)
DNA 1: AATATATTTTGATATGAACAATTAATAATTTCAAAT
DNA 2: ATTTGAAATTATTAATTGTTCATATCAAAATATATT
B31: GTGCAC_negctrl_site191 (dsDNA)
DNA 1: TTTTAAATTGGAGTGGGCAGATTGATATTATTCTTC
DNA 2: GAAGAATAATATCAATCTGCCCACTCCAATTTAAAA
B32: GTGCAC_site9981 (dsDNA)
DNA 1: ATAATGTTCACATAGGTGCACTAATATAATTATCCA
DNA 2: TGGATAATTATATTAGTGCACCTATGTGAACATTAT
B33: GTGCAC_site9615 (dsDNA)
DNA 1: TTATTTTATTTTTTTGTGCACATATATATTTATAAA
DNA 2: TTTATAAATATATATGTGCACAAAAAAATAAAATAA
B34: GTGCAC_site9630 (dsDNA)
DNA 1: TTTAATTTATATTTTGTGCACATCTTATTATATATA
DNA 2: TATATATAATAAGATGTGCACAAAATATAAATTAAA
B35: GTGCAC_site10523 (dsDNA)
DNA 1: TCGTTTCATAATATTGTGCACATATATATTTACAAT
DNA 2: ATTGTAAATATATATGTGCACAATATTATGAAACGA
B36: GTGCAC_site10054 (dsDNA)
DNA 1: GTCTATATATTTTAGGTGCAACGTAAATGTAAAAAT
DNA 2: ATTTTTACATTTACGTTGCACCTAAAATATATAGAC
B37: GTGCAC_site10340 (dsDNA)
DNA 1: ATTATTATTAATCTTGTGCACATATATTTTAATTAG
DNA 2: CTAATTAAAATATATGTGCACAAGATTAATAATAAT

target: T1, SIP2 D1; assay: gcPBM; about 25 ug protein; PBS, 1% milk, 0.2 mg/ml BSA, salmon testes DNA, 0.03% Triton X-100; conditions: tags: N-terminal GST (pGEX-4T-1), kept; label: surface-attached array probe

Binder | binding signal
B1 | 6.74 ln median PBM intensity, better of two orientations
B2 | 6.9 ln median PBM intensity, better of two orientations
B3 | 10.6 ln median PBM intensity, better of two orientations
B4 | 11.7 ln median PBM intensity, better of two orientations
B5 | 6.9 ln median PBM intensity, better of two orientations
B6 | 6.81 ln median PBM intensity, better of two orientations
B7 | 11.7 ln median PBM intensity, better of two orientations
B8 | 6.8 ln median PBM intensity, better of two orientations
B9 | 6.87 ln median PBM intensity, better of two orientations
B10 | 6.8 ln median PBM intensity, better of two orientations
B11 | 6.82 ln median PBM intensity, better of two orientations
B12 | 10.6 ln median PBM intensity, better of two orientations
B13 | 6.83 ln median PBM intensity, better of two orientations
B14 | 6.86 ln median PBM intensity, better of two orientations
B15 | 11.1 ln median PBM intensity, better of two orientations
B16 | 11.8 ln median PBM intensity, better of two orientations

Binder | binding signal
B17 | 6.92 ln median PBM intensity, better of two orientations
B18 | 11.6 ln median PBM intensity, better of two orientations
B19 | 6.91 ln median PBM intensity, better of two orientations
B20 | 11.8 ln median PBM intensity, better of two orientations
B21 | 11.5 ln median PBM intensity, better of two orientations
B22 | 6.75 ln median PBM intensity, better of two orientations
B23 | 11.4 ln median PBM intensity, better of two orientations
B24 | 11.6 ln median PBM intensity, better of two orientations
B25 | 11.4 ln median PBM intensity, better of two orientations
B26 | 6.91 ln median PBM intensity, better of two orientations
B27 | 6.83 ln median PBM intensity, better of two orientations
B28 | 6.78 ln median PBM intensity, better of two orientations
B29 | 6.88 ln median PBM intensity, better of two orientations
B30 | 6.86 ln median PBM intensity, better of two orientations
B31 | 6.81 ln median PBM intensity, better of two orientations
B32 | 11.4 ln median PBM intensity, better of two orientations

target: T2, HDP1 homeodomain-like; assay: as above; conditions: tags: N-terminal GST (pGEX-4T-1), kept; chain copies: 2; label: surface-attached array probe

Binder | binding signal
B33 | 11.9 ln median PBM intensity, better of two orientations
B34 | 11.7 ln median PBM intensity, better of two orientations
B35 | 11.5 ln median PBM intensity, better of two orientations
B36 | 11.5 ln median PBM intensity, better of two orientations
B37 | 11.6 ln median PBM intensity, better of two orientations

target: AP2-I D3 (Plasmodium falciparum, UniProt Q8IJW6 910-1027); assay: as above; conditions: tags: N-terminal GST (pGEX-4T-1), kept; label: surface-attached array probe

Binder | binding signal
B1 | 7.12 ln median PBM intensity, better of two orientations
B2 | 7.05 ln median PBM intensity, better of two orientations
B3 | 12.3 ln median PBM intensity, better of two orientations
B4 | 10.9 ln median PBM intensity, better of two orientations
B5 | 7.19 ln median PBM intensity, better of two orientations
B6 | 7.12 ln median PBM intensity, better of two orientations
B7 | 12.2 ln median PBM intensity, better of two orientations
B8 | 7.28 ln median PBM intensity, better of two orientations
B9 | 7.08 ln median PBM intensity, better of two orientations
B10 | 7.19 ln median PBM intensity, better of two orientations
B11 | 7.02 ln median PBM intensity, better of two orientations
B12 | 9.77 ln median PBM intensity, better of two orientations
B13 | 7.28 ln median PBM intensity, better of two orientations
B14 | 7.11 ln median PBM intensity, better of two orientations
B15 | 11.7 ln median PBM intensity, better of two orientations
B16 | 12.2 ln median PBM intensity, better of two orientations

Binder | binding signal
B17 | 7.09 ln median PBM intensity, better of two orientations
B18 | 12 ln median PBM intensity, better of two orientations
B19 | 7.24 ln median PBM intensity, better of two orientations
B20 | 10.3 ln median PBM intensity, better of two orientations
B21 | 12.2 ln median PBM intensity, better of two orientations
B22 | 7.02 ln median PBM intensity, better of two orientations
B23 | 12.2 ln median PBM intensity, better of two orientations
B24 | 11.1 ln median PBM intensity, better of two orientations
B25 | 10.9 ln median PBM intensity, better of two orientations
B26 | 6.92 ln median PBM intensity, better of two orientations
B27 | 7.06 ln median PBM intensity, better of two orientations
B28 | 7.02 ln median PBM intensity, better of two orientations
B29 | 6.98 ln median PBM intensity, better of two orientations
B30 | 7.19 ln median PBM intensity, better of two orientations
B31 | 7.28 ln median PBM intensity, better of two orientations
B32 | 12.2 ln median PBM intensity, better of two orientations
